Test results published in PMC2568053, “Relevance of the Diversity among Members of the Trypanosoma Cruzi Trans-Sialidase Family Analyzed with Camelids Single-Domain Antibodies” (PLoS ONE, 2008).
Where a chain is given by its changes, count along the chain named.

B1: VHHSI52 (VHH)
VHH: GGGLVQAGGSLRLSCAASGRTFYNYAMGWFRQAPGKEREFVAAISWSGGSTLYTDSVKGRFTISRANGQNTVYLQMNSLKPEDTAVYYCAADADAQPMGIIENYDYWGQG
notes: also called clone SI52; not shown: His6, C-terminal, kept
B2: VHHSI96 (VHH)
VHH: B1 VHH with R20P, L52Y, T54A, G68A, Q69H
notes: also called clone SI96; not shown: His6, C-terminal, kept
B3: VHHSI57 (VHH)
VHH: B1 VHH with F22L, L52E, T54A, G68A, T71K, I100V
notes: also called clone SI57; not shown: His6, C-terminal, kept
B4: VHH clone WI58 (VHH)
VHH: GGGLVQAGGSLRLSCAASGLTLGNYAMGWFRQAPGKERELVAAISWSGGSTYYPDSVKGRFTISRDNAKNTVYLQMNSLKPEDTAVYYCAADGQLVPLPRLSDGVDYWGKG
notes: not shown: His6, C-terminal, kept
B5: VHHSI14 (VHH)
VHH: B1 VHH with T54A, G68A, S78K, I100V
notes: also called clone SI14; VHHS14; not shown: His6, C-terminal, kept

target: recombinant TcTS clone TcTS-49 (Trypanosoma cruzi (Cl-Brener strain)); assay: not given; details: not given

| Binder | other |
| --- | --- |
| B1 | 49 % inhibition |
| B2 | 24.4 % inhibition |
| B3 | 51.1 % inhibition |

target: recombinant TcTS clone TcTS-46 (Trypanosoma cruzi (Cl-Brener strain)); assay: not given; details: not given

| Binder | other |
| --- | --- |
| B1 | 38.9 % inhibition |
| B2 | 34.8 % inhibition |
| B3 | 31.7 % inhibition |

target: recombinant TcTS clone TcTS-15 (Trypanosoma cruzi (Cl-Brener strain)); assay: not given; details: not given

| Binder | other |
| --- | --- |
| B1 | 68.7 % inhibition |
| B2 | 67.4 % inhibition |
| B3 | 81.2 % inhibition |

target: recombinant TcTS clone TcTS-12 (Trypanosoma cruzi (Cl-Brener strain)); assay: not given; details: not given

| Binder | other |
| --- | --- |
| B1 | 57.2 % inhibition |
| B2 | 59.5 % inhibition |
| B3 | 57.2 % inhibition |

target: recombinant TcTS clone TcTS-24 (Trypanosoma cruzi (Cl-Brener strain)); assay: not given; details: not given

| Binder | other |
| --- | --- |
| B1 | 98 % inhibition |
| B2 | 94.2 % inhibition |
| B3 | 98.4 % inhibition |

target: T1, recombinant Trypanosoma cruzi trans-sialidase TcTS611/2 (Trypanosoma cruzi, clone TcTS611/2 …, UniProt Q26966); assay: far-Western, overlay or dot blot; 300 ng of each His-tagged VHH spotted on nitrocellulose, probed with native TcTS611/2, revealed with rabbit anti-TcTS serum and HRP secondary; details: both partners purified
T1 construct: Trypanosoma cruzi trans-sialidase (TcTS), clone 611/2: entire globular core of TcTS without SAPA repeats; also called recombinant TcTS; pTrcTS611/2

| Binder | binding result |
| --- | --- |
| B4 | binds |

target: T1, recombinant Trypanosoma cruzi …; assay: IAsys biosensor; details: both partners purified

| Binder | Kd | koff | kon |
| --- | --- | --- | --- |
| B1 | 69 nM | 0.0103 s⁻¹ | 149000 M⁻¹ s⁻¹ |
| B5 | 22.3 nM | 0.00265 s⁻¹ | 119000 M⁻¹ s⁻¹ |
| B2 | 48.4 nM | 0.017 s⁻¹ | 352000 M⁻¹ s⁻¹ |
| B3 | 86.3 nM | 0.0143 s⁻¹ | 165000 M⁻¹ s⁻¹ |

target: T1, recombinant Trypanosoma cruzi …; assay: cell-based or functional assay; details: not given

| Binder | other |
| --- | --- |
| B1 | 81.3 % inhibition |
| B2 | 80.5 % inhibition |
| B3 | 83.3 % inhibition |
